“Also recorded” adds a separate entry of the source.
Key:
chimeric M4R (RGLG-2) = target: T1, chimeric M4R (RGLG-2) (Homo sapiens, UniProt P08173); experiment: BRET assay of the invention, cells co-expressing chimeric M4R (RGLG-2) and FP-Gγ9; format: cell-based; settings: increasing concentrations of ligand
T1 construct: ID; NOs; expressed in transfected cells
Experimental: The same cells as described for FIG. 10 A were used. […] The decrease of the signal below baseline in the PTX-treated condition confirms a constitutive activity that has been described for the M4R. […]
A typical experiment has the following sequence.
The assay of the present invention was compared with a state of the art calcium based assay. […] In calcium-based assay, a calcium flux is measured in cells co-expressing recombinant M4R and modified Gαq. In the assay in accordance with the present invention, BRET in measured in cells co-expressing a chimeric M4R according to RGLG-2 (construct and cell-line from FIG. 2C, Table 6) and FP-Gγ9 (as described in FIG. 10A). The data represent mean values and they are normalized to the maximal effect of the orthosteric agonist after the subtraction of the basal values.

[1] = test system: receptors endogenously expressed in non-transfected HEK cells; experiment: cAMP accumulation in non-transfected HEK cells; format: cell-based, human; settings: increasing concentrations of ligand
From the text: These ligands are the following: NECA (empty inverted triangles), Corticotropin releasing factor (CRF) (empty diamonds), calcitonin (full circles), isoproterenol (full triangles), UTP (full inverted triangles) and carbachol (full squares). […]

chimeric GIPR = target: T2, chimeric GIPR (Homo sapiens, UniProt P48546); experiment: BRET assay, specificity of the response of the chimeric GIPR (stable cell line, FP-Gγ9); format: cell-based; settings: increasing concentrations of ligand
T2 construct: ID; NOs; expressed in transfected cells
T2 sequence (P48546 with tags, fused parts or gaps): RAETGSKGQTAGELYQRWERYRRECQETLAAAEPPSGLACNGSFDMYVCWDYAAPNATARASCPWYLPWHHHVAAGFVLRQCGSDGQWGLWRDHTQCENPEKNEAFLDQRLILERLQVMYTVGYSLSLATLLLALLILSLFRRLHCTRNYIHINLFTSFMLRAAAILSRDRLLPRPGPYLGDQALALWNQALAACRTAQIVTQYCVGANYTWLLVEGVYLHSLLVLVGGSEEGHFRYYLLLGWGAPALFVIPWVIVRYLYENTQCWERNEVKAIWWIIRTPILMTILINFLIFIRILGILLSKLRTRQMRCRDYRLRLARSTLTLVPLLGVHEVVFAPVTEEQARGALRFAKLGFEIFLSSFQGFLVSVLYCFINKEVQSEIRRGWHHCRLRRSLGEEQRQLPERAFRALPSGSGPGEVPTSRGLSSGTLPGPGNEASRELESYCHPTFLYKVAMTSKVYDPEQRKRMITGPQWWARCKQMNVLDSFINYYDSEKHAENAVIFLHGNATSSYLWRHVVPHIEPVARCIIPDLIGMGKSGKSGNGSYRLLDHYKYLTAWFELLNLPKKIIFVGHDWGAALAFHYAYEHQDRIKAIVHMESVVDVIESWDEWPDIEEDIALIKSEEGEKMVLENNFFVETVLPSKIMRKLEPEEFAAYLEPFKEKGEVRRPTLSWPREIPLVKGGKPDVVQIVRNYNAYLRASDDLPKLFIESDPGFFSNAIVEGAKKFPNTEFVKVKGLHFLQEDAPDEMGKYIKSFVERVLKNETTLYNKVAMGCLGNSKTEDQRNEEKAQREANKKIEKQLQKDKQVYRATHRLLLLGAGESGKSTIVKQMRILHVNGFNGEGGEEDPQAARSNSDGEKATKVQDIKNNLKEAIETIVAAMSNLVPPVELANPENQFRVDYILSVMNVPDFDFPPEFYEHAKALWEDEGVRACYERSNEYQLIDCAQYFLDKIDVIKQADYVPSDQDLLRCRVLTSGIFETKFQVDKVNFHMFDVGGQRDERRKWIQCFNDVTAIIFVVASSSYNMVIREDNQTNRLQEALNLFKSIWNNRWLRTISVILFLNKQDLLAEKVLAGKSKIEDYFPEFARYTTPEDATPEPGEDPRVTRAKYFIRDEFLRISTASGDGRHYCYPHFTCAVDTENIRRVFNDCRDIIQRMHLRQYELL
Experimental: 5 or 10 minutes after the addition of coelenterazine H to the cells, the read plate is placed in the FLIPR tetra and the measurement begins.
Finally, a three-addition protocol can also be run on the FLIPR tetra, containing three compound plates, of which the first one usually contains different candidate agents, the second one an agonist at its EC20 and the third one an agonist at its EC80, so that a screen for both positive and negative allosteric modulators can be run at the same time.
The camera is adjusted in such a way that the gain is set to a maximum of 28,000× and the shutters are opened 100%. The signal captured is regulated by adjusting the exposure time to 0.1 to 3 seconds ideally resulting of a signal between 30,000-60,000 RLU. The read interval (emission filter 1, emission filter 2) is adjusted to the minimal value that results from the addition of the two exposure times (=2×0.1 to 3 seconds) plus the time needed to move the filters from position 1 to position 2 (0.3 sec), resulting in a maximal read frequency of 0.5 seconds (2 Hz).
Data on FIG. 6 were obtained by applying a two-addition protocol as described above with respect to FIG. 4, with the main differences being the final concentration of coelenterazine H of 6 μM, the exposure time in both channels of 1.5 seconds and the read interval of 3.3 seconds, as well as the presence of 0.2% BSA in the HBSS++ buffer for diluting peptidic ligands. […] The effects of the ligands were read for another 180 reads. Area under curve of blue/yellow ratio from count 31 to the end of the measurement was taken for the analysis and plotted against ligand concentration for the construction of the graph in FIG. 6.

[2] = target: human GIPR-Renilla luciferase-Gαs long fusion protein (type RLG) (human); experiment: cell-based or functional assay
human GIPR-Renilla luciferase-Gαs long fusion protein (type RLG) (human), sequence (chain, as listed by the source limits assumed): as the sequence (P48546 with tags, fused parts or gaps) above

[3] = target: human GLP-1R-Renilla luciferase-Gαs long fusion protein (type RLG) (human); experiment: cell-based or functional assay
human GLP-1R-Renilla luciferase-Gαs long fusion protein (type RLG) (human), sequence (chain, as listed by the source limits assumed): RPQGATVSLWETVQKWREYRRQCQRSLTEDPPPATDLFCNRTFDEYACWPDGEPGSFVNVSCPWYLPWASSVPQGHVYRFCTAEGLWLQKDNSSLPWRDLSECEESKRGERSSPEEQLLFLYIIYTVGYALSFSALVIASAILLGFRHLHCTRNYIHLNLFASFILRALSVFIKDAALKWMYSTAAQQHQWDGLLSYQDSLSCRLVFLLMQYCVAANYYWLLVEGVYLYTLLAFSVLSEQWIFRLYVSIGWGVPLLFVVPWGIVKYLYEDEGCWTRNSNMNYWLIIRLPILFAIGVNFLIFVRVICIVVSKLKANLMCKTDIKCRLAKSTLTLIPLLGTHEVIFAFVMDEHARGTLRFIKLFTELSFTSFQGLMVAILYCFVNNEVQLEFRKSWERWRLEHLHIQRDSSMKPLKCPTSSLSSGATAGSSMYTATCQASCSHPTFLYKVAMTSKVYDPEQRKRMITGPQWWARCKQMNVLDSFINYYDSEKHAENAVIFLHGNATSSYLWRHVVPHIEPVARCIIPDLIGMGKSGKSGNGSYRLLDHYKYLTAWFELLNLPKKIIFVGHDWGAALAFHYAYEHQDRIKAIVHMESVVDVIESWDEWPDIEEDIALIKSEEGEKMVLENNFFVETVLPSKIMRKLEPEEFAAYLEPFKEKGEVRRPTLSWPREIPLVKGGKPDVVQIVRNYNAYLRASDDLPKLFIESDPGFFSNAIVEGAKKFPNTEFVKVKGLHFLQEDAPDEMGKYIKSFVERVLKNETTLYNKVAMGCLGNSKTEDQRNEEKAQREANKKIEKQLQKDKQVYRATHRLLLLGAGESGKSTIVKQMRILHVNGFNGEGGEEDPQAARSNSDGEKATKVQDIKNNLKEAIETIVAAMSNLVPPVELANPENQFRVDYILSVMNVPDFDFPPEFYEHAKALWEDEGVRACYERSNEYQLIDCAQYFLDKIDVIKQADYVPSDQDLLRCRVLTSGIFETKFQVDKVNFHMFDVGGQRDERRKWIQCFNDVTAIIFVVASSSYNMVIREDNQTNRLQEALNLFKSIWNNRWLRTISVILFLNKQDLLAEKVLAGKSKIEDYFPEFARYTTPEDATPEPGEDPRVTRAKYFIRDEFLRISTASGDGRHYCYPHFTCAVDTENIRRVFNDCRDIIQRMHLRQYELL

[4] = target: T3, GLP1R-L-G (human GLP-1 receptor) (Homo sapiens, UniProt P43220); experiment: BRET assay, HEK cells transiently co-transfected with GLP1R-L-G and a Gγ construct; format: cell-based; settings: cells coexpressing GLP1R-L-G and the Gγ construct, exposed to GLP-1
T3 construct: ID; expressed in transfected cells; host or cells: HEK cells, transient

[5] = target: T4, GIPR-L-G (human GIP receptor) (Homo sapiens, UniProt P48546); experiment: BRET assay, HEK cells transiently co-transfected with GIPR-L-G and a Gγ construct; format: cell-based; settings: cells coexpressing GIPR-L-G and the Gγ construct, exposed to GIP
T4 construct: ID; NOs; expressed in transfected cells; host or cells: HEK cells, transient
T4 sequence (P48546 with tags, fused parts or gaps): as the sequence (P48546 with tags, fused parts or gaps) above

T1 sequence (P08173 with tags, fused parts or gaps): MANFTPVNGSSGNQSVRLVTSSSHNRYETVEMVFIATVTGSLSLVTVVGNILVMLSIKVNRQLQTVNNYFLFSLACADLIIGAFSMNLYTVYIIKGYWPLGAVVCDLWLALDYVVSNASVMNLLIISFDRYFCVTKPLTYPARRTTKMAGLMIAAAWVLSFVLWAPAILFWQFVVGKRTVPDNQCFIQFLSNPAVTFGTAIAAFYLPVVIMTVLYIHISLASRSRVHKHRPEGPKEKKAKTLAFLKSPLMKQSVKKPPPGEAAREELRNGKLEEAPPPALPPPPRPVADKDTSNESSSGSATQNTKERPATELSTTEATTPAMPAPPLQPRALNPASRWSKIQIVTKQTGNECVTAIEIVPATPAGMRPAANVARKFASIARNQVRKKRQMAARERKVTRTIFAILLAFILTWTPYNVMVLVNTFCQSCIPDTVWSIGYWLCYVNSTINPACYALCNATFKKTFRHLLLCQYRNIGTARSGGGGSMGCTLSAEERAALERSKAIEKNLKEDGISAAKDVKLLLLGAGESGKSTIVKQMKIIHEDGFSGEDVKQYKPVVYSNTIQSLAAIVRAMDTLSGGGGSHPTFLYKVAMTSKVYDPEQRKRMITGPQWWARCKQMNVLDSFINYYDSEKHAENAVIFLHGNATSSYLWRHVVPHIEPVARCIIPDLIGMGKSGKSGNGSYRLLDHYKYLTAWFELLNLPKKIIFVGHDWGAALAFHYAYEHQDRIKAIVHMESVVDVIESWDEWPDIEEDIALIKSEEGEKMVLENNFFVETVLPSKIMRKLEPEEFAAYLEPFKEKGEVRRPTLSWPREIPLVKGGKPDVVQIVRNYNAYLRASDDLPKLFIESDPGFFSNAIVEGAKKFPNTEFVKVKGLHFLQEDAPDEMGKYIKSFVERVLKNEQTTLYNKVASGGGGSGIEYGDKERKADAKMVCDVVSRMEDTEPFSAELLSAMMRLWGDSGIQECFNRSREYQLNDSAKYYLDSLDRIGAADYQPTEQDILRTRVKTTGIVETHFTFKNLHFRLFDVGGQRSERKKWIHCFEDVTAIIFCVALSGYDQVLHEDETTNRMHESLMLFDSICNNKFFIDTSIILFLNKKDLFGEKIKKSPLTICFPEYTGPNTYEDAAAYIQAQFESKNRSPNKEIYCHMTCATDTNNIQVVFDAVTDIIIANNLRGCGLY

Q: For `CCNC(=O)[C@H]1O[C@@H](n2cnc3c(N)ncnc32)[C@H](O)[C@@H]1O` [NECA, 5′-N-ethylcarboxamidoadenosine], which “activation of the chimeric M4R (BRET)” value (chimeric M4R (RGLG-2)) is on record?
A: lack of activation

Q: And the “activation of endogenously expressed receptors, cAMP accumulation” value (from here on “activation of endogenously”) [1]?
A: activated; also recorded: increase in cAMP

Q: And the “activation of the chimeric GIPR (BRET)” value (chimeric GIPR)?
A: lack of activation

Q: Which results are given for `O=c1ccn([C@@H]2O[C@H](COP(=O)(O)OP(=O)(O)OP(=O)(O)O)[C@@H](O)[C@H]2O)c(=O)[nH]1` [UTP, uridine-5′-triphosphate]?
A: activation of endogenously expressed receptors, cAMP accumulation [1]: activated; also recorded: increase in cAMP; activation of the chimeric GIPR (BRET) (chimeric GIPR): lack of activation

Q: Which results are given for `C[N+](C)(C)CCOC(N)=O` [carbachol]?
A: activation of the chimeric M4R (BRET) (chimeric M4R (RGLG-2)): activation; activation of endogenously expressed receptors, cAMP accumulation [1]: activated; also recorded: increase in cAMP; activation of the chimeric GIPR (BRET) (chimeric GIPR): lack of activation

Q: How did the “activation of the chimeric M4R (BRET)” value (chimeric M4R (RGLG-2)) turn out when `CC(C)NCC(O)c1ccc(O)c(O)c1` (stereo not drawn) [isoproterenol] was run?
A: lack of activation

Q: What about the “activation of endogenously” value [1] of the same compound?
A: activated; also recorded: increase in cAMP

Q: And the “activation of the chimeric GIPR (BRET)” value (chimeric GIPR)?
A: lack of activation

Q: “CRF: Corticotropin releasing factor, ligand of a receptor endogenously expressed in HEK cells” was tested. Which “activation of the chimeric M4R (BRET)” value (chimeric M4R (RGLG-2)) did it give?
A: lack of activation

Q: And the “activation of endogenously” value [1]?
A: increase in cAMP

Q: What about the “activation of endogenously” value ([1]; listed as Corticotropin releasing factor) of the same compound?
A: activated

Q: What about the “activation of the chimeric GIPR (BRET)” value (chimeric GIPR) of the same compound?
A: lack of activation

Q: Which EC50 (GIP), BRET receptor activation; cells co-expressing FP-Gγ9 [2] does the source give for “GIP (from UniProt P09681 52-93) (peptide)” here?
A: 0.3 nM

Q: And the EC50 (GIP), BRET receptor activation; cells co-expressing FP-Gγ11 [2]?
A: 0.4 nM

Q: What about the EC50 (GIP), BRET receptor activation; cells co-expressing FP-Gγ13 [2] of the same compound?
A: 0.3 nM

Q: And the EC50 (GIP), BRET receptor activation; cells co-expressing Gγ5-FP [2]?
A: 5.5 nM

Q: What about the EC50 (GIP), BRET receptor activation; cells co-expressing Gγ9-FP [2] of the same compound?
A: 1.4 nM

Q: And the EC50 (GIP), BRET receptor activation; cells co-expressing Gγ10-FP [2]?
A: 8.9 nM

Q: What about the EC50 (GIP), BRET receptor activation; cells co-expressing Gγ11-FP [2] of the same compound?
A: 1.6 nM

Q: What about the EC50 (GIP), BRET receptor activation; cells co-expressing Gγ13-FP [2] of the same compound?
A: 0.6 nM

Q: How did the EC50 (GLP-1), BRET receptor activation; cells co-expressing FP-Gγ1 [3] turn out when “GLP-1 (from UniProt P01275 21-180) (peptide)” was run?
A: 1.1 nM

Q: What about the EC50 (GLP-1), BRET receptor activation; cells co-expressing FP-Gγ2 [3] of the same compound?
A: 0.7 nM

Q: What about the EC50 (GLP-1), BRET receptor activation; cells co-expressing FP-Gγ3 [3] of the same compound?
A: 0.3 nM

Q: And the EC50 (GLP-1), BRET receptor activation; cells co-expressing FP-Gγ4 [3]?
A: 1.1 nM

Q: What about the EC50 (GLP-1), BRET receptor activation; cells co-expressing FP-Gγ5 [3] of the same compound?
A: 0.1 nM

Q: What about the EC50 (GLP-1), BRET receptor activation; cells co-expressing FP-Gγ7 [3] of the same compound?
A: 0.4 nM

Q: And the EC50 (GLP-1), BRET receptor activation; cells co-expressing FP-Gγ8 [3]?
A: 1.4 nM

Q: What about the EC50 (GLP-1), BRET receptor activation; cells co-expressing FP-Gγ9 [3] of the same compound?
A: 0.4 nM

Q: What about the EC50 (GLP-1), BRET receptor activation; cells co-expressing FP-Gγ10 [3] of the same compound?
A: 0.3 nM

Q: What about the EC50 (GLP-1), BRET receptor activation; cells co-expressing FP-Gγ11 [3] of the same compound?
A: 0.7 nM

Q: What about the EC50 (GLP-1), BRET receptor activation; cells co-expressing FP-Gγ12 [3] of the same compound?
A: 0.3 nM

Q: What about the EC50 (GLP-1), BRET receptor activation; cells co-expressing FP-Gγ13 [3] of the same compound?
A: 0.4 nM

Q: And the EC50 (GLP-1), BRET receptor activation; cells co-expressing Gγ1-FP [3]?
A: 1.1 nM

Q: What about the EC50 (GLP-1), BRET receptor activation; cells co-expressing Gγ2-FP [3] of the same compound?
A: 3 nM

Q: And the EC50 (GLP-1), BRET receptor activation; cells co-expressing Gγ3-FP [3]?
A: 1.5 nM

Q: And the EC50 (GLP-1), BRET receptor activation; cells co-expressing Gγ4-FP [3]?
A: 4.3 nM

Q: What about the EC50 (GLP-1), BRET receptor activation; cells co-expressing Gγ7-FP [3] of the same compound?
A: 5.2 nM

Q: And the EC50 (GLP-1), BRET receptor activation; cells co-expressing Gγ8-FP [3]?
A: 2.3 nM

Q: What about the EC50 (GLP-1), BRET receptor activation; cells co-expressing Gγ9-FP [3] of the same compound?
A: 1.7 nM

Q: What about the EC50 (GLP-1), BRET receptor activation; cells co-expressing Gγ10-FP [3] of the same compound?
A: 9.2 nM

Q: And the EC50 (GLP-1), BRET receptor activation; cells co-expressing Gγ11-FP [3]?
A: 3.1 nM

Q: What about the EC50 (GLP-1), BRET receptor activation; cells co-expressing Gγ12-FP [3] of the same compound?
A: 3.1 nM

Q: What about the EC50 (GLP-1), BRET receptor activation; cells co-expressing Gγ13-FP [3] of the same compound?
A: 1 nM

Q: Which HTS compat. [4] does the source give for “Gγ9-FP: fusion protein of human G-protein gamma9 and yellow fluorescent protein YPet, SEQ. ID. NOs. 5, 6” here?
A: +

Q: And the HTS compat. [5]?
A: +

Q: How did the “activation of the chimeric M4R (BRET)” value (chimeric M4R (RGLG-2)) turn out when “calcitonin: ligand of a receptor endogenously expressed in HEK cells” was run?
A: lack of activation

Q: What about the “activation of endogenously” value [1] of the same compound?
A: activated; also recorded: increase in cAMP

Q: And the “activation of the chimeric GIPR (BRET)” value (chimeric GIPR)?
A: lack of activation
